Assay results as given in patent publication US20140235820A1, “METHODS AND COMPOSITIONS FOR MODULATING THE Wnt PATHWAY” (Genentech, Inc., priority 2010, published 2014).
Positions of bridges follow the written chain, without caps; N, C: chain ends. Residues, ends and D or L forms follow the SMILES beside them. No end group written: not given here.

Assays:
LRP6 E1 = target: T1, LRP6 E1 (Homo sapiens, UniProt O75581); assay: Synthetic peptide competition binding to LRP6 E1; settings: synthetic peptides
T1 construct: construct E1-amino acids A20-D325 of LPR6; made in house; host or cells: Tni insect cells (baculovirus, secreted)
T1 sequence (O75581 20-325): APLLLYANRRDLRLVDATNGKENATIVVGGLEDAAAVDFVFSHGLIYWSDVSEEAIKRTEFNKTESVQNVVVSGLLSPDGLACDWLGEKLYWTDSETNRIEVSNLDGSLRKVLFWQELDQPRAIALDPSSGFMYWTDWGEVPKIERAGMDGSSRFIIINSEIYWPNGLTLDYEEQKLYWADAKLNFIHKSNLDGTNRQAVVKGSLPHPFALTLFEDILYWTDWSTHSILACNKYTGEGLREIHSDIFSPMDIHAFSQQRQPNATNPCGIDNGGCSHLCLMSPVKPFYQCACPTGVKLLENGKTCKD
Method: Alternatively, affinities were determined by fluorescence polarization (FP). A fluorescein-modified peptide probe (30 nM) was mixed with LRP5 or LRP6 E1 domain at a concentration suitable for the affinity of the particular target-probe combination (approximately Kd). Competing test agent (protein or peptide) was then added and FP monitored as a function of concentration of the test agent Inhibition constants were obtained by fitting the resulting curves to standard equations using the program KaleidaGraph (Synergy Software).
Peptide affinities were also determined by competition with phage displaying a binding peptide (competition phage ELISA). Serial dilutions of test peptide were mixed with an appropriate (non-saturating) concentration of phage before exposing the mixture to target and allowing it to reach equilibrium. After washing to remove unbound material, bound phage were detected by incubation with anti-M13 antibody-horseradish peroxidase (HRP) conjugate and exposure to a suitable colorometric HRP substrate.
Finally, peptide affinities were also determined by competition ELISA. Maxi-Sorb plates (Nunc) were coated with streptavidin or NeutrAvidin (5 μg/mL in phosphate-buffered saline (PBS); overnight, 4° C.) then blocked with 0.2% bovine serum albumin (BSA) in PBS (1 h, room temperature). A solution (500 nM in PBS) of biotinylated E1-binding peptide Ac-[…](biotin)-am (disulfide) was added to each well for 30 min, and the wells were then washed 3× with PBS containing 0.05% Tween-20 to remove excess peptide. His-tagged E1 domain or FLAG-tagged E1E2 protein (5-10 nM final concentration) was preincubated for 15 minutes with serially diluted test peptide before addition of the mixture to wells of the assay plate for 30 min. Wells were washed and then probed for bound LRP6 by addition of Qiagen penta His-HRP conjugate or Sigma anti-FLAG M2 HRP conjugate (1:2000 dilution in PBS, 0.2% BSA, 0.05% Tween-20) for 30 min. After washing, TMB substrate was added (Kirkegaard and Perry Laboratories). Wells were quenched with 1 M H3PO4 and plates read at 450 nm. […]

[1] = target: T2, Dkk1 binding to LRP6 E1E2 (Homo sapiens, UniProt O75581); assay: Peptide inhibition of Dkk1 binding to LRP6 E1E2 (biolayer interferometry); settings: peptide 20-fold higher than IC50; ligand three-fold higher than dissociation constant
T2 construct: construct E1E2-amino acids A20-E631 of LPR6; made in house; host or cells: Tni insect cells (baculovirus, secreted)
T2 sequence (O75581 20-631): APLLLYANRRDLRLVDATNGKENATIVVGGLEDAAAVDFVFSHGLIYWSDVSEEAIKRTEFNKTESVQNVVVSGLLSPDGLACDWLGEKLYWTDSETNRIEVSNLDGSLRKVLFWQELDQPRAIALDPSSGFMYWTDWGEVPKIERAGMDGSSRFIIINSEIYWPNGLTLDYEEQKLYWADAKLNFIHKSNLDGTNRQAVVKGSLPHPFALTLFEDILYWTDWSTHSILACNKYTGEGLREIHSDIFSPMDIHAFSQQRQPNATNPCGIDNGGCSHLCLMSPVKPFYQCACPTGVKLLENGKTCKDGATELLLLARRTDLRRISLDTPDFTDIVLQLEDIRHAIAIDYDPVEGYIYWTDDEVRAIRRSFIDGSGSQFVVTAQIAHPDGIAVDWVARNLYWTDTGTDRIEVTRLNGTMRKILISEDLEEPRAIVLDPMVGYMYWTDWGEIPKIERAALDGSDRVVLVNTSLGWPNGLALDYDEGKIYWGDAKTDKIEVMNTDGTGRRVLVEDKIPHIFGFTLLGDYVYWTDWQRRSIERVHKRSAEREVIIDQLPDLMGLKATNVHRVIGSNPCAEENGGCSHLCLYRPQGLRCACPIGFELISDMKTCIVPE
Method: (§1) FIG. 22. […] Binding was assessed by biolayer interferometry, as described in Example 1. Immobilized LRP6 E1E2 was exposed to protein ligand (Wnt 9b, Dkk1, or sclerostin) present in solution at a concentration three-fold higher than the measured dissociation constant for E1E2. Competing peptides were added at a saturating level (20-fold higher than the measured IC50 value). Peptide A: Ac-NSNAIKN-am; Peptide B: Ac-[…]-am (disulfide); Peptide C: Ac-[…]-am (disulfide)
(§2) Binding kinetics were measured by biolayer interferometry using an Octet Red instrument (ForteBio) as previously described (11). Streptavidin (SA) biosensors were loaded with biotinylated hLRP6 in 50 mMTris, pH 8, 300 mM NaCl, 5% (v/v) glycerol, and 0.05% (w/v) Triton X-100. The loaded biosensors were washed in the same buffer before carrying out association and dissociation measurements for the indicated times. The Kd of each interaction was determined using steady state-analysis through the Octet Red software v6.3. Each reported value represents an average of three or more experiments at different concentrations, with a fitted experimental curve for which the square of the correlation coefficient (R^2) is above 0.96.
(§3) To support the conclusions from protein mutagenesis, peptides were assayed for inhibitory activity toward binding of various ligands to LRP6. Three different peptides inhibited binding of the inhibitors Dkk1 and sclerostin to LRP6 E1E2 without affecting the binding of Wnt9B (FIG. 22).

[2] = target: T3, sclerostin binding to LRP6 E1E2 (Homo sapiens, UniProt O75581); assay: Peptide inhibition of sclerostin binding to LRP6 E1E2 (biolayer interferometry); settings: peptide 20-fold higher than IC50; ligand three-fold higher than dissociation constant
T3 construct: construct E1E2-amino acids A20-E631 of LPR6; made in house; host or cells: Tni insect cells (baculovirus, secreted)
T3 sequence (O75581 20-631): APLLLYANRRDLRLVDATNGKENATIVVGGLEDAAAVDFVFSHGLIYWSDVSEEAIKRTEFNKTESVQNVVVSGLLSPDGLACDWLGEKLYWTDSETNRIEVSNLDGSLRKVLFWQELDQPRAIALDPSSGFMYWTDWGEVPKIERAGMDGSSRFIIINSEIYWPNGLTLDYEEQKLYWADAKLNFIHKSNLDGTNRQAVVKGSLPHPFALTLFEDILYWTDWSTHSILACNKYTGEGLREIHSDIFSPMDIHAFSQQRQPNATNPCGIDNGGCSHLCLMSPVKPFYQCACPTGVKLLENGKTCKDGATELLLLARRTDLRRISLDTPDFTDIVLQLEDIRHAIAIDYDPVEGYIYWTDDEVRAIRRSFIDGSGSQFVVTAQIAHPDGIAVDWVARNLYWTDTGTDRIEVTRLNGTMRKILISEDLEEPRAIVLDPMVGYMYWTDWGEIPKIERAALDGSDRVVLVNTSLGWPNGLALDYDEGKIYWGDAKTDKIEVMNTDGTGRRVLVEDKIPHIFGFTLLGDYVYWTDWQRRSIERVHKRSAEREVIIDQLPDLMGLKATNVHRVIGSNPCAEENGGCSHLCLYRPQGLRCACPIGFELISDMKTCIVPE
Method: as §1, §2, §3

[3] = target: T4, human LRP6 construct E1 (amino acids A20-D325) (human, UniProt O75581 20-325); assay: X-ray co-crystal structure
T4 construct: range 20-325; In the Fab crystal E1 arose from E1E2 degraded beyond Arg 335; residues Ala20 to Lys324 were traced; also called LRP6 E1; E1 domain
T4 sequence (looked up): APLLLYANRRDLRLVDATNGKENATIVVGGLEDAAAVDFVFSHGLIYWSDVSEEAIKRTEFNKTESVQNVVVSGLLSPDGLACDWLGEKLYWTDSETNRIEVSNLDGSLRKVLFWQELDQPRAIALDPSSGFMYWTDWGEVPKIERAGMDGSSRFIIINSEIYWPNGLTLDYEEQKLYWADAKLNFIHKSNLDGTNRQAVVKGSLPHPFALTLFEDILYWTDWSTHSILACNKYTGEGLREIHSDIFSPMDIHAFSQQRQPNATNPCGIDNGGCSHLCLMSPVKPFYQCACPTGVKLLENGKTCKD
From the text: The diffraction data were collected using a monochromatic X-ray beam (12398.1 eV) at the Advanced Light Source (ALS) beam line 5.0.2. The X-ray detection device was an ADSC quantum-210 CCD detector placed 350 mm away from the crystal. Alternatively, data were collected at Stanford Synchrotron Radiation Laboratory (SSRL71), Advanced Photon Souce (APS211DF), or in-house using a Rigaku X-ray generator model 007HF coupled to a Rigaku CCD camera (007HF/Saturn 944+). Prior to data collection, crystals were transferred into cryo-protective solutions containing 25% glycerol, followed by flash freezing in liquid nitrogen. Rotation method was applied to a single crystal for collection of the complete data set, with 1° oscillation per frame and total wedge size of 180°. The data were then indexed, integrated, and scaled using program HKL2000 (45). The LRP6 E1/Fab structure was phased by the molecular replacement (MR) method using program Phaser (CCP4, Daresbury, England). […] The search models of Fab subunits were derived from the crystal structure of an HGFA/Fab complex (46). The search model of the β-propeller domain was a homology model generated through the ESyPred3D web server (47); the structure of the extracellular domain of LDL receptor (48) was used as the homology modeling template. […] LRP6-peptide complex structures were determined by molecular replacement, using the LRP6E1 domain from the Fab complex as the search model. Peptides were built manually into the electron density. Manual rebuilding was done with the program COOT (49). Structure refinement was carried out with programs REFMAC5 (50) and PHENIX (51) using the maximum likelihood target functions, anisotropic individual B-factor refinement (peptide complexes only.

[4] = tested on: LRP6 E1E2 variants with LRP5 BMD substitutions; assay: Steady-state affinity for LRP6 E1E2 variants carrying LRP5 BMD substitutions; assay type: binding, human
Method: FIG. 13. Introduction of LRP5 BMD substitutions into LRP6 E1E2 lowers affinity for Wnt inhibitors. The five substitutions characterized are indicated on the y-axis. Steady-state affinity measurements were made for Wnt9b, Dkk1, and sclerostin binding to each of the LRP6 variants.
as §2
Cells transfected with LRP5 variants carrying BMD mutations show reduced binding to sclerostin and are less sensitive to sclerostin inhibition of Wnt10b or Wnt6 signaling (70). To further test the effects of the BMD substitutions, we introduced several of them into LRP6 E1E2, with the results shown in FIG. 13. LRP6 E1E2 Gly158Val could not be expressed in insect cells. […] Importantly, not only is the binding to sclerostin affected (70), but the binding of Dkk1 to its E1 interaction site is also impaired.

## CC[C@H](C)[C@@H]1NC(=O)[C@H](CO)NC(=O)[C@H](CC(N)=O)NC(=O)[C@H]([C@@H](C)O)NC(=O)[C@@H](NC(=O)[C@@H](N)CO)CSSC[C@@H](C(=O)N[C@@H](Cc2ccc(O)cc2)C(=O)NCC(=O)O)NC(=O)[C@H](CCC(N)=O)NC(=O)[C@@H]2CCCN2C(=O)[C@@H]2CCCN2C1=O [BBI mimetic] (H-SCTNSIPPQCYG-OH; disulfide 2-10; N-terminus and C-terminus assumed)
LRP6 E1
  binding / affinity for LRP6 E1 (in words): binds

## Ac-CNSIKFCG-am (disulfide) (Ac-CNSIKFCG-NH2; disulfide 1-7 (inferred)) [Peptide B]
[1]
  inhibition of Dkk1 binding to LRP6 E1E2: inhibit binding
[2]
  inhibition of sclerostin binding to LRP6 E1E2: inhibit binding

## Ac-GSLCSNRIKPDTHCSS-am (disulfide) (Ac-GSLCSNRIKPDTHCSS-NH2; disulfide 4-14 (inferred)) [Peptide C]
[1]
  inhibition of Dkk1 binding to LRP6 E1E2: inhibit binding
[2]
  inhibition of sclerostin binding to LRP6 E1E2: inhibit binding

## Ac-NSNAIKN-am (Ac-NSNAIKN-NH2) [Peptide A]
[1]
  inhibition of Dkk1 binding to LRP6 E1E2: inhibit binding
[2]
  inhibition of sclerostin binding to LRP6 E1E2: inhibit binding

## amide-cyclized variant of the Dkk1 7-mer peptide: Dkk1 7-mer with Ser2 substituted by Lys and Asn7 by Asp, side chains joined by an amide bond (NKNAIKD; lactam 2-7)
LRP6 E1; listed as cyclized peptide
  binding / affinity for LRP6 E1 (in words): binds
LRP6 E1; listed as target cyclic peptide
  binding / affinity for LRP6 E1 (in words): affinity equivalent to the parent Dkk1 peptide

B1: Ac-GSLCSNRIKPDTHCSS-am (disulfide) (peptide)
peptide: Ac-GSLCSNRIKPDTHCSS-NH2
modifications: disulfide 4-14 (inferred)
notes: also called Peptide C; CX9C class member of Exemplary Family 2
[3]
  binding result: binds

B2: Ac-SNSIKFYA-am (peptide)
peptide: Ac-SNSIKFYA-NH2
notes: also called linear peptide from Exemplary Family 1; parent Ile peptide
[3]
  binding result: binds

B3: Ac-CNSIKCL-am (disulfide) (peptide)
peptide: Ac-CNSIKCL-NH2
modifications: disulfide 1-6 (inferred)
notes: also called CX4C class member of Exemplary Family 2
[3]
  binding result: binds

B4: Ac-CNSIKLC-am (disulfide) (peptide)
peptide: Ac-CNSIKLC-NH2
modifications: disulfide 1-7 (inferred)
notes: also called CX5C class member of Exemplary Family 2
[3]
  binding result: binds

B5: Wnt9b: Wnt9b, carrier-free protein from R&D Systems (protein, UniProt O14905 23-357, looked up)
Protein Wnt-9b: SYFGLTGREVLTPFPGLGTAAAPAQGGAHLKQCDLLKLSRRQKQLCRREPGLAETLRDAAHLGLLECQFQFRHERWNCSLEGRMGLLKRGFKETAFLYAVSSAALTHTLARACSAGRMERCTCDDSPGLESRQAWQWGVCGDNLKYSTKFLSNFLGSKRGNKDLRARADAHNTHVGIKAVKSGLRTTCKCHGVSGSCAVRTCWKQLSPFRETGQVLKLRYDSAVKVSSATNEALGRLELWAPARQGSLTKGLAPRSGDLVYMEDSPSFCRPSKYSPGTAGRVCSREASCSSLCCGRGYDTQSRLVAFSCHCQVQWCCYVECQQCVQEELVYTCKH
[4]
  effect of LRP6 BMD mutations on binding to LRP6 E1E2 (in words): little to no effect
[4]; five substitutions characterized
  change in affinity for the LRP6 E1E2 BMD variants compared to wild type: ≤ 5 fold
